± gives the standard deviation of the averaged measurements.
System: ATP
Assay: switch fluorescence ratio, 500 uM ATP over buffer (Cy3 cluster intensity, sum of 5 cycles each) (fold (ratio)); higher = stronger signal-on switching upon ATP binding; sequences stand for … in TCGTCGGCAGCGTCAGATGTGTATAAGAGACAGTTTTTTTTTTTTTTTTTTTTTTTTT…TC
Details: aptamer strand: ATP DNA aptamer (quencher-CACCTGGGGGAGTATTGCGGAGGAAGG + anchor), 100 nM annealed; ATP concentration: 500 uM
Summary of the method: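 Between each of five buffer/ATP cycles, the flow-cell was stripped with NaOH and re-annealed. Each cycle imaged Cy3-labelled switching-strand clusters, annealed to 100 nM quencher-labelled ATP aptamer on a modified Illumina MiSeq flow-cell, first in selection buffer and then after 15 min with 500 uM ATP at 22 °C. The fluorescence ratio is summed target-cycle over summed buffer-cycle Cy3 intensity per cluster, averaged per switch-domain sequence, with clusters outside 100-1000 RFU excluded.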
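Note: ATP exposure 15 min at 22 °C before imaging.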

Sequence	switch fluorescence ratio
CAATTTAATA	1.01 ± 0.019
CAATTTCGTT	1.01 ± 0.021
CAATTTTAGG	0.987 ± 0.018
CACAACGGGA	0.985 ± 0.029
CACAAGCGAT	1.42 ± 0.063
CACACAGTAT	1.0721 ± 0.00011
CACACGTTAT	1.19 ± 0.019
CACAGGAGGG	1.03 ± 0.019
CACAGGGCGG	1.04 ± 0.017
CACAGTGAGT	0.997 ± 0.021
CACAGTGGTA	1.03 ± 0.058
CACATCATAT	1.04 ± 0.039
CACATTATGA	1.04 ± 0.014
CACCAGAGCT	1.09 ± 0.026
CACCAGGGCT	1.6 ± 0.051
CACCGGCTGG	0.986 ± 0.086
CACCTTACTC	2.07 ± 0.11
CACGACTTCC	2.27 ± 0.12
CACGAGGAGG	0.9809 ± 0.0055
CACGAGGTTG	0.992 ± 0.02
CACGCAGGGT	1.11 ± 0.12
CACGCATGTT	1.09 ± 0.015

Sequence	switch fluorescence ratio
CACGCGTATG	1.03 ± 0.011
CACGGAGAGT	1.14 ± 0.18
CACGGATAGC	1.07 ± 0.027
CACGGCGTAG	1.02 ± 0.013
CACGGGGGAC	1.06 ± 0.021
CACGGGGGAT	1.03 ± 0.011
CACGGGGTCC	1.06 ± 0.069
CACGGGTGTT	1.32 ± 0.12
CACGGTGCGG	1.01 ± 0.015
CACGTATCTC	1.2 ± 0.05
CACGTCCAC	1.44 ± 0.061
CACGTTATAG	1.19 ± 0.026
CACGTTGTAT	1.32 ± 0.42
CACTAACTA	1.121 ± 0.0035
CACTAATGGT	1.073 ± 0.0072
CACTAGCTCG	1.02 ± 0.021
CACTAGGGGA	1 ± 0.028
CACTAGTCTG	1.01 ± 0.033
CACTATAACT	1.071 ± 0.0068
CACTATAGCG	1.042 ± 0.0098
CACTCTGTCA	1.04 ± 0.022
CACTCTTGAT	1.01 ± 0.019

Sequence	switch fluorescence ratio
CACTGAAGTT	1.026 ± 0.00036
CACTGGGGCA	1.1 ± 0.15
CACTGGGTGT	1.24 ± 0.021
CAGAAACGGT	1 ± 0.047
CAGAACCCGC	1.1 ± 0.015
CAGAAGTCCA	0.991 ± 0.052
CAGAATGGTG	0.978 ± 0.028
CAGAATGTTA	1 ± 0.038
CAGAATTTAG	0.996 ± 0.024
CAGACCGGTT	0.996 ± 0.035
CAGAGAAAGG	0.997 ± 0.014
CAGAGAAAGT	0.973 ± 0.038
CAGAGAAGGC	0.991 ± 0.018
CAGAGACTTT	0.994 ± 0.012
CAGAGAGTTA	0.984 ± 0.024
CAGAGGGGAG	1.03 ± 0.027
CAGAGGGGGT	0.988 ± 0.017
CAGAGGGTGC	1.03 ± 0.017
CAGAGGTGGC	1.07 ± 0.032
CAGAGTGTGA	1.005 ± 0.0086
CAGATAGGTG	1.15 ± 0.089
CAGATATTAC	1.06 ± 0.035

Sequence	switch fluorescence ratio
CAGATCAGTA	0.964 ± 0.015
CAGATCCTTA	1.051 ± 0.0082
CAGATCGGTT	0.964 ± 0.014
CAGATGGGTA	0.971 ± 0.025
CAGATGTGGC	0.927 ± 0.037
CAGATGTTTT	0.987 ± 0.052
CAGATTCTGT	0.973 ± 0.023
CAGATTTAAG	0.994 ± 0.017
CAGATTTAGC	0.9728 ± 0.0068
CAGCACGCGC	1.06 ± 0.038
CAGCAGAGGT	1.02 ± 0.013
CAGCAGATTA	1.04 ± 0.018
CAGCAGGGGT	1.24 ± 0.15
CAGCCCAGGT	4.12 ± 2.7
CAGCGTCCCT	1.07 ± 0.014
CAGCGTCGT	1.02 ± 0.025
CAGCGTTCAC	1.054 ± 0.0092
CAGCTCATGC	1.0792 ± 0.00059
CAGCTCCCGG	1.07 ± 0.039

Source: the supplement of paper PMC10126150
